From patent publication US20200270325A1 (Merck Sharp & Dohme, published 2020)
Numbered stars: 1 amine (or outer) side, 2 acyl side, 3 side chain; on linkers, the order of the positions; unused ones are H or OH. Square brackets hold non-standard residues; d marks the D form. Side chains are listed from the residue outwards. Ends that are not written are not given here. * marks the point of attachment. C16 diacid = O=C(O)CCCCCCCCCCCCCCC(=O)*; γGlu = O=C(O)[C@H](CCC(=O)[*:2])N[*:1]; Met(O2) = CS(=O)(=O)CC[C@H](N)C(=O)O; αMeD = C[C@](N)(CC(=O)O)C(=O)O; AEEA = NCCOCCOCC(=O)O; Aib = CC(C)(N)C(=O)O

B1: TP588 (peptide)
peptide: H[Aib]QGTFTSDYSKYLD[Aib]RAAK([AEEA-AEEA-γGlu-C20‑OH])DFVQWL[Met(O2)][αMeD]T-NH2
B2: TP811 (peptide)
peptide: H[Aib]QGTFTSDYSKYLD[Aib]RAAQDFVK([AEEA-AEEA-γGlu-C16 diacid])WL[Met(O2)]DT-NH2
modifications: N-terminus assumed
SMILES: CC(C)C[C@H](NC(=O)[C@H](Cc1c[nH]c2ccccc12)NC(=O)[C@H](CCCCNC(=O)COCCOCCNC(=O)COCCOCCNC(=O)CC[C@H](NC(=O)CCCCCCCCCCCCCCC(=O)O)C(=O)O)NC(=O)[C@@H](NC(=O)[C@H](Cc1ccccc1)NC(=O)[C@H](CC(=O)O)NC(=O)[C@H](CCC(N)=O)NC(=O)[C@H](C)NC(=O)[C@H](C)NC(=O)[C@H](CCCNC(=N)N)NC(=O)C(C)(C)NC(=O)[C@H](CC(=O)O)NC(=O)[C@H](CC(C)C)NC(=O)[C@H](Cc1ccc(O)cc1)NC(=O)[C@H](CCCCN)NC(=O)[C@H](CO)NC(=O)[C@H](Cc1ccc(O)cc1)NC(=O)[C@H](CC(=O)O)NC(=O)[C@H](CO)NC(=O)[C@@H](NC(=O)[C@H](Cc1ccccc1)NC(=O)[C@@H](NC(=O)CNC(=O)[C@H](CCC(N)=O)NC(=O)C(C)(C)NC(=O)[C@@H](N)Cc1c[nH]cn1)[C@@H](C)O)[C@@H](C)O)C(C)C)C(=O)N[C@@H](CCS(C)(=O)=O)C(=O)N[C@@H](CC(=O)O)C(=O)N[C@H](C(N)=O)[C@@H](C)O
B3: TP812 (peptide)
peptide: H[Aib]QGTFTSDYSKYLDARAAK([AEEA-AEEA-γGlu-C16 diacid])EFVQWL[Met(O2)]DT-NH2
modifications: N-terminus assumed
SMILES: CC(C)C[C@H](NC(=O)[C@H](Cc1ccc(O)cc1)NC(=O)[C@H](CCCCN)NC(=O)[C@H](CO)NC(=O)[C@H](Cc1ccc(O)cc1)NC(=O)[C@H](CC(=O)O)NC(=O)[C@H](CO)NC(=O)[C@@H](NC(=O)[C@H](Cc1ccccc1)NC(=O)[C@@H](NC(=O)CNC(=O)[C@H](CCC(N)=O)NC(=O)C(C)(C)NC(=O)[C@@H](N)Cc1c[nH]cn1)[C@@H](C)O)[C@@H](C)O)C(=O)N[C@@H](CC(=O)O)C(=O)N[C@@H](C)C(=O)N[C@@H](CCCNC(=N)N)C(=O)N[C@@H](C)C(=O)N[C@@H](C)C(=O)N[C@@H](CCCCNC(=O)COCCOCCNC(=O)COCCOCCNC(=O)CC[C@H](NC(=O)CCCCCCCCCCCCCCC(=O)O)C(=O)O)C(=O)N[C@@H](CCC(=O)O)C(=O)N[C@@H](Cc1ccccc1)C(=O)N[C@H](C(=O)N[C@@H](CCC(N)=O)C(=O)N[C@@H](Cc1c[nH]c2ccccc12)C(=O)N[C@@H](CC(C)C)C(=O)N[C@@H](CCS(C)(=O)=O)C(=O)N[C@@H](CC(=O)O)C(=O)N[C@H](C(N)=O)[C@@H](C)O)C(C)C

The binders below were run against human Glucagon receptor (GCGR) (human, UniProt P47871 26-477) (assay: cell-based or functional assay).
Chain of human Glucagon receptor (GCGR) (P47871 26-477): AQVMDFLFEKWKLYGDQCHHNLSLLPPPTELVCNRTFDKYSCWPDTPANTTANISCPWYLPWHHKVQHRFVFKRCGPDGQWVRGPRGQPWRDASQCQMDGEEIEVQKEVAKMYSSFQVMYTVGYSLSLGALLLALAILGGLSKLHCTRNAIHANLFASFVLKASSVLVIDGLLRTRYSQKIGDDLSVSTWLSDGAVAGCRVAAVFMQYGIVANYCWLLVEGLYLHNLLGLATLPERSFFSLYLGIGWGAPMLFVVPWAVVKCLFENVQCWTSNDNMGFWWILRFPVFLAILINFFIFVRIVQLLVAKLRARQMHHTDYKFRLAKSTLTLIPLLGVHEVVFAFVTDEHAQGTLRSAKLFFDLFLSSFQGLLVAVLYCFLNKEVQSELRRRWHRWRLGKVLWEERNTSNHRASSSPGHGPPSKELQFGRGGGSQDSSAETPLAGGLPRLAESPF

Compared with B1, B2 is 13-fold lower in “GCGR EC50 human” value: 2.67 nM for the first, 0.21 nM for the second.

In the case of B3, the “GCGR EC50 human” value is reported as 0.2 nM.

The binders below were run against human GLP-1 receptor (GLP1R) (human, UniProt P43220 24-463) (assay: cell-based or functional assay).

Compared with B1, B2 is 11-fold lower in “GLP1R EC50 human” value: 2.92 nM for the first, 0.26 nM for the second.

For B3, the “GLP1R EC50 human” value was 0.088 nM.
